Measured values reported in patent US20250320252A1 (Scripps Research, published 2025).
Read-outs that look alike come from different tables or passages of the source. Bridge positions count the residues as written; N and C are the ends. Square brackets hold non-standard residues; d marks the D form. Ends that are not written are not given here. C20L5A = not defined here; L5A(S) = not defined here; L5A = not defined here; Aib = CC(C)(N)C(=O)O

T1: cynomolgus monkey GIPR (cynomolgus monkey, UniProt A0A2K5VD75 22-466)
T1 sequence: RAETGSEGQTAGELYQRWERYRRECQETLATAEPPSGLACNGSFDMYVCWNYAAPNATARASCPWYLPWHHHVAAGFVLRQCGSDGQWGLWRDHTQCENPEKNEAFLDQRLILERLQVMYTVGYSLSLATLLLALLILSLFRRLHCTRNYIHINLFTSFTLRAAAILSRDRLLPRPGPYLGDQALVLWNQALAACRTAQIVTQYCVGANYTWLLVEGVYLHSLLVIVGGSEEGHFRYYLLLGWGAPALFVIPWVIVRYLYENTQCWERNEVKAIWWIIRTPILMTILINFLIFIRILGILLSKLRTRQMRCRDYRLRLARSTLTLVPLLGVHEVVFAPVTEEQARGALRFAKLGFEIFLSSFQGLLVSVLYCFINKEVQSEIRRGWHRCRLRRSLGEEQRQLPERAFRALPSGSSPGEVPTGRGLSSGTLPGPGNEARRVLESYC

T2: human GIP receptor (human, UniProt P48546 22-466)
T2 sequence (looked up): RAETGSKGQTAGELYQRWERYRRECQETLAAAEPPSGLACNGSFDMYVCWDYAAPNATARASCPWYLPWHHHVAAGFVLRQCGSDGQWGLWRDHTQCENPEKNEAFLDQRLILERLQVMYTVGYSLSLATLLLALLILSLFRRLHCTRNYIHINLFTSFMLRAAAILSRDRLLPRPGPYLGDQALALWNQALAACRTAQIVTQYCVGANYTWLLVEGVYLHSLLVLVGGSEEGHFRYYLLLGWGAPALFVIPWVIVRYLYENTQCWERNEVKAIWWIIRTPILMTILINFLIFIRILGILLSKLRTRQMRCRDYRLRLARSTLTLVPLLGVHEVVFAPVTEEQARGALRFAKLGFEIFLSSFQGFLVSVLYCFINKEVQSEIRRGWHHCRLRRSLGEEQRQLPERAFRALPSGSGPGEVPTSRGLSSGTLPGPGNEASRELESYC

T3: mouse GIPR (mouse, UniProt Q0P543 19-460)
T3 sequence (looked up): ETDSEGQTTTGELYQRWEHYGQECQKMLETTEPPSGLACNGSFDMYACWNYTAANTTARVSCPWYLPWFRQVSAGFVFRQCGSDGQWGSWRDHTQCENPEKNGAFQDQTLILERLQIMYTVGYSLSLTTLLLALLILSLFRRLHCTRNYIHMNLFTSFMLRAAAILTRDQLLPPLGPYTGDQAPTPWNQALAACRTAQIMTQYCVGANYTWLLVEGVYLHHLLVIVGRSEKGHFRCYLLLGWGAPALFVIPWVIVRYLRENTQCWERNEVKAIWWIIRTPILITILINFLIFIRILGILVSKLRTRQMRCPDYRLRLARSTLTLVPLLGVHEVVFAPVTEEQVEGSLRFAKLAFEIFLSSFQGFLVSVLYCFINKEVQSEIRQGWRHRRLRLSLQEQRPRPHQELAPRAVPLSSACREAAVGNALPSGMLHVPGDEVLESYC

T4: dog GLP1R (dog, UniProt A0A8I3NUR9 25-464)
T4 sequence: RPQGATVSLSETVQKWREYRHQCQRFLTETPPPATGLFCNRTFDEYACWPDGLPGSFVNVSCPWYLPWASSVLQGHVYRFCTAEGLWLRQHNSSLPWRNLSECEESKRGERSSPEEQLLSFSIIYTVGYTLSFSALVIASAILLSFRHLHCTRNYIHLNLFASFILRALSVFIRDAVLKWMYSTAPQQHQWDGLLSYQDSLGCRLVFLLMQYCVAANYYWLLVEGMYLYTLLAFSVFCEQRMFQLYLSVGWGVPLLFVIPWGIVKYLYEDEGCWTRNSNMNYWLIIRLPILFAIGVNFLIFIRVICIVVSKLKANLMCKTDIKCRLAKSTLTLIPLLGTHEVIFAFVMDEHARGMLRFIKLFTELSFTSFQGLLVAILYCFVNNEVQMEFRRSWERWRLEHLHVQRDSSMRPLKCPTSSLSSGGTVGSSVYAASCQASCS

T5: mouse GLP1R (mouse, UniProt O35659 22-463)
T5 sequence (looked up): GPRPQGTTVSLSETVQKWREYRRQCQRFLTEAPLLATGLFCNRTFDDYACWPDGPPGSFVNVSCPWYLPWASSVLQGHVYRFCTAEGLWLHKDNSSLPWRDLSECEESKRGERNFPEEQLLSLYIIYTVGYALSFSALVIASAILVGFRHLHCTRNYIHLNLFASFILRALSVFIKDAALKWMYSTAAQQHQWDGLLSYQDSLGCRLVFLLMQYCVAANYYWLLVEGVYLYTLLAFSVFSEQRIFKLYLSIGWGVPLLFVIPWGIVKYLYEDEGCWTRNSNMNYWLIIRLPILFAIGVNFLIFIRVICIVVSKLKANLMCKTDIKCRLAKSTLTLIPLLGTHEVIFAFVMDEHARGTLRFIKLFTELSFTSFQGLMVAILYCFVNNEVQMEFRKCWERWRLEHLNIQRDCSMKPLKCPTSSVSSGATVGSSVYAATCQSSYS

B1: mCMD307 (2050-K4) (peptide)
peptide: Y[Aib]EGTFTSDYSIYKDKQAA[Aib]KFVNWLLAGGPSSGAPPPS-NH2
modifications: bridge 14-21; not fully specified (bridges); also: K4 staple carries PEG-fatty acid

Assays:
Assay in all cases: cell-based or functional assay
[1] = target: T1, cynomolgus monkey GIPR
[2] = target: dog GIPR (dog)
[3] = target: T2, human GIP receptor
[4] = target: T6, human GLP-1 receptor (human, UniProt P43220 24-463)
[5] = target: T2, human GIP receptor; remark: listed apart in the source
[6] = target: T6, human GLP-1 receptor; remark: listed apart in the source
[7] = target: cynomolgus monkey GLP1R (cynomolgus monkey, UniProt F8V479 24-463)
[8] = target: T3, mouse GIPR
[9] = target: T4, dog GLP1R
[10] = target: T2, human GIP receptor; remark: listed apart in the source
[11] = target: T2, human GIP receptor; remark: listed apart in the source
[12] = target: T6, human GLP-1 receptor; remark: listed apart in the source
[13] = target: T2, human GIP receptor; remark: listed apart in the source
[14] = target: T6, human GLP-1 receptor; remark: listed apart in the source
[15] = target: T5, mouse GLP1R

| Binder | In Vitro Potency GIPR EC50 [nM], Cyno [1] [nM] | In Vitro Potency GIPR EC50 [nM], Dog [2] [nM] | EC50 of receptor-mediated cAMP synthesis, GIPR (nM), 02/19 [3] [nM] | EC50 of receptor-mediated cAMP synthesis, GIPR (nM), 03/25 [3] [nM] | EC50 of receptor-mediated cAMP synthesis, GIPR (nM), 03/26 [3] [nM] | EC50 of receptor-mediated cAMP synthesis, GIPR (nM), average [3] [nM] | EC50 of receptor-mediated cAMP synthesis, GLP1R (nM), 02/19 [4] [nM] | EC50 of receptor-mediated cAMP synthesis, GLP1R (nM), 3/25 [4] [nM] | EC50 [nM] of receptor-mediated cAMP synthesis [5] [nM] | EC50 [nM] of receptor-mediated cAMP synthesis [6] [nM] | In Vitro Potency GLP1R EC50 [nM], Cyno [7] [nM] | In Vitro Potency GIPR EC50 [nM], Mouse [8] [nM] | In Vitro Potency GLP1R EC50 [nM], Dog [9] [nM] | also measured |
| --- | --- | --- | --- | --- | --- | --- | --- | --- | --- | --- | --- | --- | --- | --- |
| YAEGTFISDYSIAMDKIHQQDFVNWLLAQKGKKNDWKHNITQ-NH2 (ligand) [wild-type human GIP] | 0.69 | 0.7 |  |  |  |  |  |  |  |  |  |  |  |  |
| Y[Aib]EGTFTSDYSIYLDKCAA[Aib]EFVCWLLAGGPSSGAPPPS-NH2 (linker 17-24 via C20L5A; not fully specified; reading uncertain) [C(17-24)-C20L5A] |  |  | 0.04 | 0.02 | 0.03 | 0.03 | 0.07 | 0.1 | 0.05 | 0.11 |  |  |  |  |
| Y[Aib]EGTFTSDYSIYLDKCAA[Aib]EFVCWLLAGGPSSGAPPPS-NH2 (linker 17-24 via L5A; not fully specified; reading uncertain) [C(17-24)-L5A] |  |  |  |  |  |  |  |  | 0.05 | 0.11 |  |  |  |  |
| Y[Aib]EGTFTSDYSIYLDKCAA[Aib]EFVCWLIAGGPSSGAPPPS-NH2 (linker 17-24 via L5A(S); not fully specified; reading uncertain) [mCMZ371 (C(17-24)-L5A(S))] |  | 0.47 |  |  |  |  |  |  |  |  | 0.11 | 0.27 | 1.34 | In Vitro Potency GIPR EC50 [nM], 10% FBS [10]: 0.04 nM |
| B1 |  |  | 0.04 | 0.01 | 0.01 | 0.02 | 0.01 | 0.01 | 0.01 | 0.03 |  |  |  | EC50 of receptor-mediated cAMP synthesis, GLP1R (nM), 03/26 [4]: 0.01 nM; EC50 of receptor-mediated cAMP synthesis, GLP1R (nM), average [4]: 0.01 nM; EC50 [nM] of receptor-mediated cAMP synthesis [11]: 0.01 nM; EC50 [nM] of receptor-mediated cAMP synthesis [12]: 0.03 nM; EC50 [nM] of receptor-mediated cAMP synthesis [13]: 0.02 nM; EC50 [nM] of receptor-mediated cAMP synthesis [14]: 0.01 nM |
| Y[Aib]EGTFTSDYSIYLDKCAA[Aib]EFVCWLIAGGPSSGAPPPS-NH2 (linker 17-24 via C20L5A; not fully specified; reading uncertain) [mCMV268 (27I, C(17-24)-C20L5A)] | 0.16 |  | 0.05 | 0.04 | 0.03 | 0.04 |  |  |  |  | 0.22 | 0.26 | 1.48 | In Vitro Potency GLP1R EC50 [nM], Mouse [15]: 0.26 nM |
